The text below walks through data of patent publication US5833943, “Minimum recognition unit of a pem mucin tandem repeat specific monoclonal antibody” (Cancer Therapeutics Limited, dated 1998).

This assay has as its target mucin molecule associated with epithelial tumours (Homo sapiens (Human), UniProt P15941). The experiment in a line: synthetic CDR peptides of NM-2 VH; method not told at this place.

No end group written: not given here.

B1: peptide REPPTRTFAYWG (peptide)
peptide: REPPTRTFAYWG
modifications: also: I125 label, position not given here
For B1, the binding result is reported as “binds”.
